Data as given in the supplement of paper PMC11136658.

System: peptide library, one residue held at a place counted from the Y acceptor
Experiment: relative phosphorylation of the sub-library (ratio to the mean residue at this position); higher = residue favoured
Method in brief: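 Within 384-well plates, purified recombinant kinases phosphorylated biotinylated Tyr-centred peptide library mixtures over 90 min using 50 μM ATP spiked with γ-32P-ATP; each mixture fixed one residue at one position from −5 to +5. Streptavidin membrane capture, rinsing, phosphorimaging and ImageQuant gave the intensities. These were normalized per position to the sum of the 18 randomized residues (16 for the Ser/Thr-free library) and multiplied by that number.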

Chain of JAK1, construct: aa866-end, human (P23458 866-1154, looked up): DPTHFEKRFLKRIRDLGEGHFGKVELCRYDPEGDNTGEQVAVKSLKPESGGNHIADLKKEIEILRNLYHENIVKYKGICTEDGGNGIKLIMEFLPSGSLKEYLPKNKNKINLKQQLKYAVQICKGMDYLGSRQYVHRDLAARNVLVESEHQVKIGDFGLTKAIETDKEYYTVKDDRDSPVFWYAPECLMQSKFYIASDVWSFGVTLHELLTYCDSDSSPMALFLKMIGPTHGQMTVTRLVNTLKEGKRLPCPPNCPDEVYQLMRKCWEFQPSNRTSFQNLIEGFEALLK
Chain of KIT, construct: aa544-end, human (P10721 544-976, looked up): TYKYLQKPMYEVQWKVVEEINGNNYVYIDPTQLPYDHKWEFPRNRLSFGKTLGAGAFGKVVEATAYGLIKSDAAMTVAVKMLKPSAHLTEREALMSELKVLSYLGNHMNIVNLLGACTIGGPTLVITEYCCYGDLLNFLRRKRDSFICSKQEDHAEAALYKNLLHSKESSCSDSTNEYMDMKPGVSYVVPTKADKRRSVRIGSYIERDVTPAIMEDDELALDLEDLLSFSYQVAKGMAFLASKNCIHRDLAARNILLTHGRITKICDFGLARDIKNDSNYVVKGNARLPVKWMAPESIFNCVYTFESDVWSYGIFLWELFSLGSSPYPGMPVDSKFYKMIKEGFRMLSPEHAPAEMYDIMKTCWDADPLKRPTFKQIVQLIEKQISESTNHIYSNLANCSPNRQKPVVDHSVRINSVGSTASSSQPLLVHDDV
Chain of HCK, construct: aa230-497, human (P08631 230-497, looked up): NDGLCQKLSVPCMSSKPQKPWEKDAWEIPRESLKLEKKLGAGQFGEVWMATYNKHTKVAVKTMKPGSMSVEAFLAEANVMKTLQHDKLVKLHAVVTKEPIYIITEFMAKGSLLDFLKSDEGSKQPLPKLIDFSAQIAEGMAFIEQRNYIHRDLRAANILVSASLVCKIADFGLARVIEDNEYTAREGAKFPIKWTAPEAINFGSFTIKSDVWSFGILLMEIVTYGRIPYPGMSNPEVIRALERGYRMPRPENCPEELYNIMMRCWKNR

HCK, construct: aa230-497, human (from UniProt P08631)
relative phosphorylation
Settings | at +1 | at +2 | at +3 | at +4 | at +5 | at -1 | at -2 | at -3 | at -4 | at -5
A fixed | 1.66 | 0.982 | 0.656 | 0.876 | 1.06 | 0.652 | 1.08 | 0.95 | 1.15 | 1.1
D fixed | 0.917 | 0.585 | 0.323 | 0.623 | 0.676 | 0.844 | 1.29 | 1.43 | 1.16 | 1.18
E fixed | 1.55 | 1.19 | 0.316 | 0.766 | 0.746 | 1.04 | 1.49 | 1.65 | 1.47 | 1.01
F fixed | 0.785 | 1 | 2.12 | 1.08 | 1.05 | 1.09 | 0.717 | 1.11 | 0.966 | 0.987
G fixed | 2.28 | 0.813 | 0.862 | 1.11 | 1.09 | 0.456 | 1.31 | 1.02 | 1.31 | 1.18
H fixed | 0.812 | 0.659 | 0.992 | 1.09 | 0.964 | 0.768 | 0.915 | 1.01 | 0.85 | 0.907
I fixed | 0.815 | 1.15 | 1.84 | 0.87 | 0.769 | 2.91 | 0.843 | 0.718 | 0.977 | 0.922
K fixed | 0.253 | 0.807 | 0.675 | 1.31 | 1.27 | 0.259 | 0.633 | 0.543 | 0.629 | 0.91
L fixed | 0.816 | 1.03 | 1.49 | 0.907 | 0.984 | 2.15 | 1 | 0.956 | 1.18 | 1.09
M fixed | 1.37 | 1.13 | 1.1 | 1.31 | 1.06 | 1.12 | 0.808 | 0.964 | 1.11 | 1.1
N fixed | 0.612 | 0.95 | 0.477 | 0.801 | 0.853 | 0.414 | 1.24 | 1.15 | 0.817 | 0.995
P fixed | 0.265 | 0.975 | 0.758 | 0.902 | 1.26 | 0.769 | 1.06 | 1.06 | 1.15 | 1.16
Q fixed | 0.923 | 0.888 | 0.508 | 0.99 | 0.731 | 0.521 | 1.04 | 0.867 | 0.934 | 0.99
R fixed | 0.369 | 0.993 | 1.18 | 1.49 | 1.51 | 0.228 | 0.667 | 0.58 | 0.685 | 0.772
S fixed | 1.12 | 1.17 | 0.663 | 0.972 | 1.05 | 0.489 | 1.18 | 1.02 | 0.761 | 0.942
T fixed | 0.97 | 1.42 | 0.706 | 0.924 | 0.998 | 1.35 | 1.01 | 0.961 | 0.709 | 0.845
V fixed | 1.14 | 1.17 | 1.36 | 0.872 | 0.811 | 2.24 | 0.95 | 0.807 | 0.925 | 0.912
W fixed | 1.34 | 1.08 | 1.98 | 1.11 | 1.12 | 0.698 | 0.771 | 1.2 | 1.21 | 0.99
pThr fixed | 0.949 | 1.18 | 0.296 | 0.431 | 0.421 | 2.4 | 1.22 | 1.12 | 1.05 | 1.09
pTyr fixed | 1.46 | 1.61 | 0.497 | 0.628 | 0.569 | 1.09 | 1.21 | 1.37 | 1.4 | 1.1

JAK1, construct: aa866-end, human (from UniProt P23458)
relative phosphorylation
Settings | at +1 | at +2 | at +3 | at +4 | at +5 | at -1 | at -2 | at -3 | at -4 | at -5
A fixed | 0.719 | 1.02 | 0.75 | 0.954 | 1.06 | 1.36 | 1.03 | 1.03 | 1.2 | 1.05
D fixed | 0.171 | 0.329 | 0.239 | 0.618 | 0.655 | 0.907 | 0.905 | 0.919 | 0.963 | 0.916
E fixed | 0.237 | 0.402 | 0.195 | 0.79 | 0.649 | 1.08 | 0.81 | 0.891 | 1.02 | 0.871
F fixed | 2.15 | 0.807 | 1.02 | 1.08 | 1.09 | 1.11 | 0.81 | 1.1 | 1.23 | 1.03
G fixed | 0.385 | 0.788 | 0.879 | 1.19 | 1.19 | 1.44 | 1.21 | 1.11 | 1.19 | 1.16
H fixed | 0.87 | 0.545 | 0.714 | 1.05 | 0.906 | 0.847 | 0.915 | 0.905 | 0.788 | 0.931
I fixed | 2.1 | 0.695 | 2.37 | 0.834 | 0.784 | 1.24 | 0.941 | 0.795 | 0.861 | 1.04
K fixed | 0.286 | 1.88 | 0.713 | 1.25 | 1.16 | 0.364 | 0.824 | 0.732 | 0.851 | 1.01
L fixed | 2.04 | 0.871 | 2.13 | 0.875 | 0.886 | 1.24 | 1.04 | 1.15 | 1.12 | 1.09
M fixed | 2.06 | 0.911 | 1.35 | 1.11 | 0.897 | 1.17 | 1.03 | 1.09 | 0.983 | 1.07
N fixed | 0.289 | 1.04 | 0.752 | 0.882 | 0.923 | 0.749 | 1.05 | 1.02 | 0.784 | 0.914
P fixed | 0.371 | 1.55 | 0.755 | 0.89 | 1.41 | 1.63 | 1.13 | 1.41 | 1.33 | 1.24
Q fixed | 0.699 | 0.893 | 0.494 | 1.03 | 0.852 | 0.661 | 1.06 | 0.845 | 1.09 | 0.953
R fixed | 0.509 | 2.13 | 0.985 | 1.45 | 1.33 | 0.414 | 1.02 | 0.851 | 0.929 | 0.911
S fixed | 0.534 | 1.43 | 0.836 | 1.16 | 1.21 | 0.813 | 1.33 | 1.13 | 0.844 | 0.904
T fixed | 0.812 | 1.09 | 1.2 | 0.956 | 1.19 | 0.865 | 1.05 | 0.983 | 0.678 | 0.805
V fixed | 1.8 | 0.832 | 1.67 | 0.887 | 0.838 | 1.35 | 0.931 | 0.957 | 0.922 | 0.953
W fixed | 1.96 | 0.781 | 0.953 | 0.988 | 0.971 | 0.756 | 0.89 | 1.08 | 1.22 | 1.14
pThr fixed | 0.349 | 0.342 | 0.188 | 0.413 | 0.485 | 0.849 | 0.695 | 0.704 | 0.872 | 0.823
pTyr fixed | 0.608 | 0.384 | 0.271 | 0.735 | 0.608 | 2.64 | 0.751 | 0.934 | 0.929 | 0.925

KIT, construct: aa544-end, human (from UniProt P10721)
relative phosphorylation
Settings | at +1 | at +2 | at +3 | at +4 | at +5 | at -1 | at -2 | at -3 | at -4 | at -5
A fixed | 0.767 | 0.817 | 0.577 | 0.912 | 1.01 | 0.799 | 1.12 | 1.03 | 1.1 | 1.01
D fixed | 0.38 | 0.893 | 0.392 | 0.969 | 0.604 | 1.62 | 1.26 | 1.51 | 1.33 | 1.22
E fixed | 0.666 | 1.19 | 0.276 | 0.92 | 0.618 | 1.36 | 1.45 | 1.76 | 1.51 | 1.04
F fixed | 1.99 | 1.1 | 2.08 | 1.13 | 1.9 | 1.06 | 0.614 | 0.837 | 0.973 | 0.976
G fixed | 0.387 | 0.485 | 0.529 | 1.03 | 1.16 | 0.521 | 1.19 | 1.1 | 1.17 | 1.22
H fixed | 1.82 | 0.971 | 0.859 | 1.14 | 0.933 | 1.39 | 0.967 | 0.973 | 0.913 | 1.04
I fixed | 1.78 | 0.95 | 2.43 | 0.817 | 0.793 | 1.86 | 0.881 | 0.703 | 0.892 | 0.869
K fixed | 0.694 | 0.803 | 0.588 | 1.05 | 0.596 | 0.494 | 0.669 | 0.754 | 0.806 | 1.03
L fixed | 1.18 | 1.15 | 1.76 | 0.826 | 0.911 | 1.06 | 0.867 | 0.707 | 0.801 | 0.849
M fixed | 1.17 | 1.02 | 1.42 | 0.903 | 0.949 | 0.834 | 0.763 | 0.764 | 0.865 | 0.848
N fixed | 0.554 | 1.05 | 0.581 | 0.952 | 0.811 | 1.13 | 1.15 | 1.18 | 0.92 | 1.07
P fixed | 0.495 | 0.925 | 1.1 | 0.96 | 1.48 | 0.883 | 1.26 | 1.07 | 1.12 | 1.13
Q fixed | 1.12 | 1.05 | 0.591 | 1.09 | 0.773 | 0.87 | 1.15 | 1.01 | 1.05 | 0.891
R fixed | 0.761 | 1.04 | 0.871 | 1.26 | 0.822 | 0.487 | 0.857 | 0.774 | 0.929 | 0.958
S fixed | 0.649 | 0.88 | 0.53 | 0.99 | 0.904 | 0.644 | 1.14 | 1.09 | 0.934 | 0.983
T fixed | 0.834 | 0.943 | 0.706 | 0.87 | 0.953 | 0.952 | 1.08 | 1.03 | 0.834 | 0.985
V fixed | 1.65 | 1.02 | 1.65 | 0.868 | 0.776 | 1.37 | 0.909 | 0.756 | 0.775 | 0.797
W fixed | 1.11 | 1.71 | 1.07 | 1.32 | 2.01 | 0.667 | 0.676 | 0.95 | 1.09 | 1.1
pThr fixed | 0.919 | 1.81 | 0.344 | 0.573 | 0.504 | 1.43 | 1.17 | 1.69 | 1.35 | 1.26
pTyr fixed | 2.18 | 2 | 0.413 | 1.16 | 0.73 | 4.18 | 1.59 | 1.89 | 1.48 | 1.4
